The subject of this data set is Escherichia coli TOP10. The data set is described as follows: shrunken log2 fold change of peptide-encoding DNA abundance (4.5 h post-induction vs induction); higher = less antimicrobial activity (less host growth inhibition). The settings on record: time post-induction: 4.5 h; library: site-saturation at positions 5, 18, 19, 20.
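Further: peptides expressed intracellularly from a pBAD plasmid library in pooled LB shake-flask culture, induced with 0.3% L-arabinose, DNA abundance read by NGS, three biological replicates, DESeq2 with apeglm shrinkage.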

For RRIRCRPPRLPRPRPRPLFGPRP, the “shrunken log2 fold change” value is -0.0673.

RRIRSRPPRLPRPRPRPVCPPRP: the “shrunken log2 fold change” value came out at 0.0554.

For RRIRTRPPRLPRPRPRPQAYPRP, the “shrunken log2 fold change” value was -0.629.

With RRIRARPPRLPRPRPRPEEEPRP, the “shrunken log2 fold change” value came out at 0.178.

Consider RRIRYRPPRLPRPRPRPMFWPRP, for which the “shrunken log2 fold change” value was -0.0534.

As for RRIRFRPPRLPRPRPRPSSGPRP, the “shrunken log2 fold change” value is -0.0411.

Turning to RRIRCRPPRLPRPRPRPMNQPRP, the “shrunken log2 fold change” value was -0.248.

On to RRIRQRPPRLPRPRPRPVYFPRP, for which the “shrunken log2 fold change” value was -0.446.

RRIRERPPRLPRPRPRPRRIPRP: the “shrunken log2 fold change” value is -0.00822.

Regarding RRIRPRPPRLPRPRPRPPIEPRP, the “shrunken log2 fold change” value was -0.0597.

Consider RRIRKRPPRLPRPRPRPQAMPRP, for which the “shrunken log2 fold change” value came out at 0.146.

As to RRIRERPPRLPRPRPRPMDWPRP, the “shrunken log2 fold change” value stood at 0.0151.

For the sequence RRIRCRPPRLPRPRPRPYLHPRP, the “shrunken log2 fold change” value is -1.18.

Turning to RRIRKRPPRLPRPRPRPEACPRP, the “shrunken log2 fold change” value came to 0.0762.

Turning to RRIRNRPPRLPRPRPRPWQRPRP, the “shrunken log2 fold change” value was -0.0153.

For the sequence RRIRYRPPRLPRPRPRPPGGPRP, the “shrunken log2 fold change” value stood at 0.259.

For RRIRIRPPRLPRPRPRPEMHPRP, the “shrunken log2 fold change” value is -0.328.

Take RRIRGRPPRLPRPRPRPSHAPRP: the “shrunken log2 fold change” value stood at 0.423.

On to RRIRARPPRLPRPRPRPRILPRP, for which the “shrunken log2 fold change” value came to 0.323.

On to RRIRPRPPRLPRPRPRPCKIPRP, for which the “shrunken log2 fold change” value was -0.0494.

On to RRIRARPPRLPRPRPRPQQTPRP, for which the “shrunken log2 fold change” value came to 0.141.

Turning to RRIRMRPPRLPRPRPRPKFNPRP, the “shrunken log2 fold change” value is -0.111.

Consider RRIRNRPPRLPRPRPRPHVQPRP, for which the “shrunken log2 fold change” value was -0.0883.

On to RRIRIRPPRLPRPRPRPTKDPRP, for which the “shrunken log2 fold change” value is -0.491.

In the case of RRIRWRPPRLPRPRPRPFHLPRP, the “shrunken log2 fold change” value is -0.818.

RRIRYRPPRLPRPRPRPDDHPRP: the “shrunken log2 fold change” value was -0.264.

Turning to RRIRCRPPRLPRPRPRPGGVPRP, the “shrunken log2 fold change” value stood at 0.42.

Consider RRIRRRPPRLPRPRPRPANAPRP, for which the “shrunken log2 fold change” value worked out at 0.055.

Take RRIRDRPPRLPRPRPRPKTPPRP: the “shrunken log2 fold change” value is -0.00153.

For the sequence RRIRCRPPRLPRPRPRPIGLPRP, the “shrunken log2 fold change” value came to 0.00863.

In the case of RRIRDRPPRLPRPRPRPWWIPRP, the “shrunken log2 fold change” value was -0.0075.

With RRIRDRPPRLPRPRPRPCFLPRP, the “shrunken log2 fold change” value was -0.106.

Consider RRIRTRPPRLPRPRPRPQCFPRP, for which the “shrunken log2 fold change” value came out at 0.0187.

With RRIRMRPPRLPRPRPRPGDYPRP, the “shrunken log2 fold change” value turned out to be 0.0762.

Take RRIRYRPPRLPRPRPRPDLKPRP: the “shrunken log2 fold change” value is -0.21.

Turning to RRIRLRPPRLPRPRPRPINHPRP, the “shrunken log2 fold change” value is -0.654.

RRIRWRPPRLPRPRPRPHDWPRP: the “shrunken log2 fold change” value was found to be 0.15.

Take RRIRVRPPRLPRPRPRPARKPRP: the “shrunken log2 fold change” value is 0.342.

On to RRIRMRPPRLPRPRPRPFKAPRP, for which the “shrunken log2 fold change” value is -0.114.

Take RRIRQRPPRLPRPRPRPTRLPRP: the “shrunken log2 fold change” value worked out at 0.723.

For RRIRKRPPRLPRPRPRPNRTPRP, the “shrunken log2 fold change” value was -0.0227.

As for RRIRDRPPRLPRPRPRPKDGPRP, the “shrunken log2 fold change” value was -0.0429.

For RRIRARPPRLPRPRPRPVKEPRP, the “shrunken log2 fold change” value is -0.0493.

Take RRIRDRPPRLPRPRPRPTSRPRP: the “shrunken log2 fold change” value turned out to be 0.208.

Consider RRIRARPPRLPRPRPRPSWNPRP, for which the “shrunken log2 fold change” value is -0.19.

With RRIRPRPPRLPRPRPRPCIKPRP, the “shrunken log2 fold change” value is -0.441.

As for RRIRVRPPRLPRPRPRPGGRPRP, the “shrunken log2 fold change” value came out at 0.317.

As for RRIRARPPRLPRPRPRPLLDPRP, the “shrunken log2 fold change” value is 0.788.

On to RRIRNRPPRLPRPRPRPHAGPRP, for which the “shrunken log2 fold change” value stood at 0.00938.

For the sequence RRIRPRPPRLPRPRPRPLYWPRP, the “shrunken log2 fold change” value is -0.0211.

On to RRIRCRPPRLPRPRPRPVVDPRP, for which the “shrunken log2 fold change” value is -0.15.

As to RRIRTRPPRLPRPRPRPGFSPRP, the “shrunken log2 fold change” value was -0.016.

Take RRIRCRPPRLPRPRPRPPMCPRP: the “shrunken log2 fold change” value was -0.23.

Consider RRIRHRPPRLPRPRPRPDNIPRP, for which the “shrunken log2 fold change” value was -0.207.

RRIRTRPPRLPRPRPRPEVLPRP: the “shrunken log2 fold change” value is -0.0153.

As to RRIRYRPPRLPRPRPRPHHWPRP, the “shrunken log2 fold change” value was -0.892.

In the case of RRIRHRPPRLPRPRPRPEMRPRP, the “shrunken log2 fold change” value turned out to be 0.122.

RRIRLRPPRLPRPRPRPVFTPRP: the “shrunken log2 fold change” value was -0.135.

In the case of RRIRTRPPRLPRPRPRPRPHPRP, the “shrunken log2 fold change” value came out at 0.296.

In the case of RRIRARPPRLPRPRPRPSPWPRP, the “shrunken log2 fold change” value amounted to 0.348.

On to RRIRCRPPRLPRPRPRPDMPPRP, for which the “shrunken log2 fold change” value is -0.253.

For the sequence RRIRPRPPRLPRPRPRPWDDPRP, the “shrunken log2 fold change” value was -0.144.

Turning to RRIRPRPPRLPRPRPRPEHVPRP, the “shrunken log2 fold change” value turned out to be 0.0556.

Turning to RRIRGRPPRLPRPRPRPLYDPRP, the “shrunken log2 fold change” value is 0.135.

As for RRIRLRPPRLPRPRPRPHKGPRP, the “shrunken log2 fold change” value is -0.0262.

For RRIRSRPPRLPRPRPRPCYSPRP, the “shrunken log2 fold change” value was -0.839.

Consider RRIRERPPRLPRPRPRPLFQPRP, for which the “shrunken log2 fold change” value was -0.271.

RRIRARPPRLPRPRPRPYFWPRP: the “shrunken log2 fold change” value is -0.0609.

With RRIRSRPPRLPRPRPRPHCFPRP, the “shrunken log2 fold change” value came out at 0.111.

For RRIRCRPPRLPRPRPRPFMSPRP, the “shrunken log2 fold change” value was 0.0579.

For RRIRQRPPRLPRPRPRPTCQPRP, the “shrunken log2 fold change” value was -0.125.

For the sequence RRIRSRPPRLPRPRPRPNSPPRP, the “shrunken log2 fold change” value was -0.149.

Consider RRIRRRPPRLPRPRPRPYPMPRP, for which the “shrunken log2 fold change” value is -0.187.

Take RRIRWRPPRLPRPRPRPLGAPRP: the “shrunken log2 fold change” value is 0.483.

In the case of RRIRRRPPRLPRPRPRPWVQPRP, the “shrunken log2 fold change” value was determined as 0.25.

As for RRIRNRPPRLPRPRPRPIHCPRP, the “shrunken log2 fold change” value is -0.244.

For the sequence RRIRFRPPRLPRPRPRPLWNPRP, the “shrunken log2 fold change” value was -0.89.

As for RRIRFRPPRLPRPRPRPHTDPRP, the “shrunken log2 fold change” value was -0.736.

For the sequence RRIRDRPPRLPRPRPRPKSEPRP, the “shrunken log2 fold change” value was 0.0995.

Regarding RRIRGRPPRLPRPRPRPRTYPRP, the “shrunken log2 fold change” value was 0.0193.

For the sequence RRIRIRPPRLPRPRPRPCETPRP, the “shrunken log2 fold change” value came to 0.105.

On to RRIRARPPRLPRPRPRPLLVPRP, for which the “shrunken log2 fold change” value was found to be 0.284.

In the case of RRIRTRPPRLPRPRPRPGWVPRP, the “shrunken log2 fold change” value is -0.0236.

For RRIRCRPPRLPRPRPRPCVAPRP, the “shrunken log2 fold change” value turned out to be 0.178.

With RRIRWRPPRLPRPRPRPHYPPRP, the “shrunken log2 fold change” value was -0.225.

RRIRERPPRLPRPRPRPQFYPRP: the “shrunken log2 fold change” value was -0.452.

For RRIRPRPPRLPRPRPRPKHEPRP, the “shrunken log2 fold change” value stood at 0.0756.

Regarding RRIRGRPPRLPRPRPRPWKYPRP, the “shrunken log2 fold change” value is -0.115.

With RRIRKRPPRLPRPRPRPWCNPRP, the “shrunken log2 fold change” value was -0.204.

Regarding RRIRMRPPRLPRPRPRPCKEPRP, the “shrunken log2 fold change” value is -0.00822.

RRIRIRPPRLPRPRPRPVFNPRP: the “shrunken log2 fold change” value is -0.602.

For the origin of these results see the supplement of paper PMC9112550, “Optimization of the antimicrobial peptide Bac7 by deep mutational scanning” (BMC Biology, 2022).
